Data from US20220089722A1 (NANTONG YICHEN BIOPHARMA, published 2022).

T1: CD19 on NALM-6 cells (UniProt P15391 20-556, limits assumed)
T1 sequence (looked up): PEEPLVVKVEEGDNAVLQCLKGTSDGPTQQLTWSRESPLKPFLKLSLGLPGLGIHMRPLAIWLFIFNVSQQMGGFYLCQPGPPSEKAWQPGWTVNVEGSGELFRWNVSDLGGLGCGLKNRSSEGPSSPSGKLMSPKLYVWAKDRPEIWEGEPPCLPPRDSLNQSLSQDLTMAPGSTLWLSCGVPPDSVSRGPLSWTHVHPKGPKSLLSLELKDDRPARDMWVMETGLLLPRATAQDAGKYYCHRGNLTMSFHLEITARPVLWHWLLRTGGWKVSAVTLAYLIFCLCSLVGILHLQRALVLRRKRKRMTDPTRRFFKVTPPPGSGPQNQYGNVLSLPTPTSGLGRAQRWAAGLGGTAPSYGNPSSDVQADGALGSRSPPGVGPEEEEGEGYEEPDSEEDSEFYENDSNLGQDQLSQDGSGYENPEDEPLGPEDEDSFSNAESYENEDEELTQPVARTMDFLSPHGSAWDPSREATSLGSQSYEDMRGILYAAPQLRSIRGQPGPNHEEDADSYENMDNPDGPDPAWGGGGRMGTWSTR


Columns and labels:
CD19 on NALM-6 cells = target: T1, CD19 on NALM-6 cells; test: cell-based or functional assay
[1] = target: MICA on PANC-1, BXPC-3 or K562 cells (UniProt Q29983 24-383, limits assumed); test: cell-based or functional assay
Sequence of MICA on PANC-1, BXPC-3 or K562 cells (Q29983 24-383 limits assumed): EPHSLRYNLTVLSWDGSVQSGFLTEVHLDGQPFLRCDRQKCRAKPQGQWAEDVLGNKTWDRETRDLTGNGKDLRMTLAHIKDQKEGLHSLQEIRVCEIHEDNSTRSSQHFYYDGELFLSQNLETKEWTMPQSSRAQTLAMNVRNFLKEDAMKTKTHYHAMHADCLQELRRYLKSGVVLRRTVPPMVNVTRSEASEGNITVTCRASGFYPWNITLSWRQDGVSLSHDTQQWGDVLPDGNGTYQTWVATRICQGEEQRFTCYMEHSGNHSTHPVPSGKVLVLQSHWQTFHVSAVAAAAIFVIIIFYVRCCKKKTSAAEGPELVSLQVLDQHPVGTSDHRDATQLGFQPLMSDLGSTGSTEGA

Row | Binder | Promotion for the specific killing effect of PBMCs on target cells by heterodimers (EC50, pM); Nalm-6 cells (CD19 on NALM-6 cells) | Promotion for the specific killing effect of PBMCs on target cells by heterodimers (EC50, pM); K562 cells, LDH assay [1] | Promotion for the specific killing effect of PBMCs on target cells by heterodimers (EC50, pM); PANC-1 cells, LDH assay [1]
1 | IgFD-6(anti-CD19/CD3) (bispecific antibody, human IgG1, kappa) chain 1: EVQLVESGGGLVQPGGSLRLSCAASGFTFNTYAMNWVRQAPGKGLEWVARIRSKYNNYATYYADSVKDRFTISRDDSKNTLYLQMNSLRAEDTAVYYCVRHGNFGNSYVSWFAYWGQGTLVTVSSASTKGPSVFPLAPSSKSTSGGTAALGCLVKDYFPEPVTVSWNSGALTSGVHTFPAVLQSSGLYSLSSVVTVPSSSLGTQTYICNVNHKPSNTKVDKKVEPKSCDKTHTCPPCPAPPVAGPSVFLFPPKPKDTLMISRTPEVTCVVVDVSHEDPEVKFNWYVDGVEVHNAKTKPREEQYNSTYRVVSVLTVLHQDWLNGKEYKCKVSNKGLPSSIEKTISKAKGQPREPQVYTLPPSRDELTKNQVSLTCLVKGFYPSDIAVEWESNGQPENNYKTTPPVLDSDGSFFLYSKLTVDKSRWQQGNVFSCSVMHEALHNHYTQKSLSLSPGKSGGGGSGGGGSGGGGSDIQMTQTTSSLSASLGDRVTISCRASQDISKYLNWYQQKPDGTVKLLIYHTSRLHSGVPSRFSGSGSGTDYSLTISNLEQEDIATYFCQQGNTLPYTFGGGTKLEITGGGGSGGGGSGGGGSEVKLQESGPGLVAPSQSLSVTCTVSGVSLPDYGVSWIRQPPRKGLEWLGVIWGSETTYYNSALKSRLTIIKDNSKSQVFLKMNSLQTDDTAIYYCAKHYYYGGSYAMDYWGQGTSVTVSS chain 2: QAVVTQEPSLTVSPGGTVTLTCRSSTGAVTTSNYANWVQQKPDHLFRGLIGGTNKRAPGTPARFSGSLLGDKAALTISGAQPEDEAEYYCALWYSNLWVFGGGTKLTVLKRTVAAPSVFIFPPSDEQLKSGTASVVCLLNNFYPREAKVQWKVDNALQSGNSQESVTEQDSKDSTYSLSSTLTLSKADYEKHKVYACEVTHQGLSSPVTKSFNRGECDKTHTCPPCPAPPVAGPSVFLFPPKPKDTLMISRTPEVTCVVVDVSHEDPEVKFNWYVDGVEVHNAKTKPREEQYNSTYRVVSVLTVLHQDWLNGKEYKCKVSNKGLPSSIEKTISKAKGQPREPQVYTLPPSRDELTKNQVSLTCLVKGFYPSDIAVEWESNGQPENNYKTTPPVLDSDGSFFLYSKLTVDKSRWQQGNVFSCSVMHEALHNHYTQKSLSLSPGK | 14.9 pM | – | –
2 | IgFD-7(anti-CD19/CD3) (bispecific antibody, human IgG1, kappa) chain 1: EVQLVESGGGLVQPGGSLRLSCAASGFTFNTYAMNWVRQAPGKGLEWVARIRSKYNNYATYYADSVKDRFTISRDDSKNTLYLQMNSLRAEDTAVYYCVRHGNFGNSYVSWFAYWGQGTLVTVSSASTKGPSVFPLAPSSKSTSGGTAALGCLVKDYFPEPVTVSWNSGALTSGVHTFPAVLQSSGLYSLSSVVTVPSSSLGTQTYICNVNHKPSNTKVDKKVEPKSCDKTHTCPPCPAPPVAGPSVFLFPPKPKDTLMISRTPEVTCVVVDVSHEDPEVKFNWYVDGVEVHNAKTKPREEQYNSTYRVVSVLTVLHQDWLNGKEYKCKVSNKGLPSSIEKTISKAKGQPREPQVYTLPPSRDELTKNQVSLTCLVKGFYPSDIAVEWESNGQPENNYKTTPPVLDSDGSFFLYSKLTVDKSRWQQGNVFSCSVMHEALHNHYTQKSLSLSPGK chain 2: QAVVTQEPSLTVSPGGTVTLTCRSSTGAVTTSNYANWVQQKPDHLFRGLIGGTNKRAPGTPARFSGSLLGDKAALTISGAQPEDEAEYYCALWYSNLWVFGGGTKLTVLKRTVAAPSVFIFPPSDEQLKSGTASVVCLLNNFYPREAKVQWKVDNALQSGNSQESVTEQDSKDSTYSLSSTLTLSKADYEKHKVYACEVTHQGLSSPVTKSFNRGECDKTHTCPPCPAPPVAGPSVFLFPPKPKDTLMISRTPEVTCVVVDVSHEDPEVKFNWYVDGVEVHNAKTKPREEQYNSTYRVVSVLTVLHQDWLNGKEYKCKVSNKGLPSSIEKTISKAKGQPREPQVYTLPPSRDELTKNQVSLTCLVKGFYPSDIAVEWESNGQPENNYKTTPPVLDSDGSFFLYSKLTVDKSRWQQGNVFSCSVMHEALHNHYTQKSLSLSPGKSGGGGSGGGGSGGGGSDIQMTQTTSSLSASLGDRVTISCRASQDISKYLNWYQQKPDGTVKLLIYHTSRLHSGVPSRFSGSGSGTDYSLTISNLEQEDIATYFCQQGNTLPYTFGGGTKLEITGGGGSGGGGSGGGGSEVKLQESGPGLVAPSQSLSVTCTVSGVSLPDYGVSWIRQPPRKGLEWLGVIWGSETTYYNSALKSRLTIIKDNSKSQVFLKMNSLQTDDTAIYYCAKHYYYGGSYAMDYWGQGTSVTVSS | 11.7 pM | – | –
3 | IgFD-37(anti-CD3/MICA) (Fc fusion) chain 1: EVQLVESGGGLVQPGGSLRLSCAASGFTFNTYAMNWVRQAPGKGLEWVARIRSKYNNYATYYADSVKDRFTISRDDSKNTLYLQMNSLRAEDTAVYYCVRHGNFGNSYVSWFAYWGQGTLVTVSSASTKGPSVFPLAPSSKSTSGGTAALGCLVKDYFPEPVTVSWNSGALTSGVHTFPAVLQSSGLYSLSSVVTVPSSSLGTQTYICNVNHKPSNTKVDKKVEPKSCDKTHTCPPCPAPPVAGPSVFLFPPKPKDTLMISRTPEVTCVVVDVSHEDPEVKFNWYVDGVEVHNAKTKPREEQYNSTYRVVSVLTVLHQDWLNGKEYKCKVSNKGLPSSIEKTISKAKGQPREPQVYTLPPCRDELTKNQVSLWCLVKGFYPSDIAVEWESNGQPENNYKTTPPVLDSDGSFFLYSKLTVDKSRWQQGNVFSCSVMHEALHNHYTQKSLSLSPGKGGSGAKLAALKAKLAALKGGGGSFLNSLFNQEVQIPLTESYCGPCPKNWICYKNNCYQFFDESKNWYESQASCMSQNASLLKVYSKEDQDLLKLVKSYHWMGLVHIPTNGSWQWEDGSILSPNLLTIIEMQKGDCALYASSFKGYIENCSTPNTYICMQRTV chain 2: QAVVTQEPSLTVSPGGTVTLTCRSSTGAVTTSNYANWVQQKPDHLFRGLIGGTNKRAPGTPARFSGSLLGDKAALTISGAQPEDEAEYYCALWYSNLWVFGGGTKLTVLKRTVAAPSVFIFPPSDEQLKSGTASVVCLLNNFYPREAKVQWKVDNALQSGNSQESVTEQDSKDSTYSLSSTLTLSKADYEKHKVYACEVTHQGLSSPVTKSFNRGECDKTHTCPPCPAPPVAGPSVFLFPPKPKDTLMISRTPEVTCVVVDVSHEDPEVKFNWYVDGVEVHNAKTKPREEQYNSTYRVVSVLTVLHQDWLNGKEYKCKVSNKGLPSSIEKTISKAKGQPREPQVCTLPPSRDELTKNQVSLSCAVKGFYPSDIAVEWESNGQPENNYKTTPPVLDSDGSFFLVSKLTVDKSRWQQGNVFSCSVMHEALHNHYTQKSLSLSPGKGGSGAKLAALKAKLAALKGGGGSFLNSLFNQEVQIPLTESYCGPCPKNWICYKNNCYQFFDESKNWYESQASCMSQNASLLKVYSKEDQDLLKLVKSYHWMGLVHIPTNGSWQWEDGSILSPNLLTIIEMQKGDCALYASSFKGYIENCSTPNTYICMQRTV | – | 1090 pM | 676 pM
